The target of assay [1] is His6 Myosin Va GTD (1,464–1,855) (UniProt Q9Y4I1). Briefly: MST; Monolith NT.115; RED-NHS labelled His6-MyoVa GTD fixed at 100 nM, 16 serial dilutions of the unlabelled Rab/Mst3 reaction mixture (+ATP phosphorylated 2 h at 27°C; -ATP control); 50 mM Hepes pH 7.5, 5% glycerol, 150 mM NaCl, 5 mM MgCl2, 0.1 mM TCEP, GTP, 6 μM BSA, 0.01% Tween-20; 30 min in the dark at 25°C; Mst3 kinase present.

The target of assay [2] is LRRK2-phosphorylated Rab10 (pRab10) (human (endogenous in HEK293T)) (UniProt P61026).
Assay [3] addresses T1, His6 Myosin Va GTD (1,464–1,855) (UniProt Q9Y4I1 1464-1855, labeled with RED-NHS 2nd Generation (amine reactive) dye (NT-647)).
T1 chain: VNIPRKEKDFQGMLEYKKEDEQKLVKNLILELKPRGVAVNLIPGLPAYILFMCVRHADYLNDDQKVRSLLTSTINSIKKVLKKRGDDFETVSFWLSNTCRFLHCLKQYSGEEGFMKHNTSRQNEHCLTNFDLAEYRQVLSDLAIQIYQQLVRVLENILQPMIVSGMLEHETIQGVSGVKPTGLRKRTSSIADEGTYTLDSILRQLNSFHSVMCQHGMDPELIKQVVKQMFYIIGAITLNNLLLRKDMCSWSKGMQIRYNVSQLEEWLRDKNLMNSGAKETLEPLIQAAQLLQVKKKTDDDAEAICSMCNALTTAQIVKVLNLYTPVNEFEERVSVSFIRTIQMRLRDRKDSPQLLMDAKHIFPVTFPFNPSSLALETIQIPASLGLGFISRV
Briefly: MST; Rab8A phosphorylated by Mst3.

Assay [4] addresses T2, His6 Myosin Va GTD (1,464–1,855) (UniProt Q9Y4I1 1464-1855, labeled with RED-NHS 2nd Generation (amine reactive) dye (NT-647)).
T2 construct: Myosin Va globular tail domain, residues 1,464-1,855; bacterial expression plasmid a gift from Amir Khan; purified as described by Berndsen et al 2019 and Waschbüsch et al 2020; the limits differ from those of the mCherry construct m3 (1,421-1,880, mouse); also called His6-MyoVa GTD; purified MyoVa GTD; source: E. coli BL21 (DE3 pLys), purified (Ni-NTA, Superdex-75)
Briefly: MST; Monolith NT.115; RED-NHS labelled His6-MyoVa GTD fixed at 100 nM, 16 serial dilutions of the unlabelled Rab/Mst3 reaction mixture (+ATP phosphorylated 2 h at 27°C; -ATP control); 50 mM Hepes pH 7.5, 5% glycerol, 150 mM NaCl, 5 mM MgCl2, 0.1 mM TCEP, GTP, 6 μM BSA, 0.01% Tween-20; 30 min in the dark at 25°C; Mst3 kinase present. To be noted: both partners purified.

For assay [5], the target named is T1, His6 Myosin Va GTD (1,464–1,855). Put plainly: MST; unphosphorylated Rab8A.
Assay [6] shares this target. Briefly: MST; unphosphorylated Rab10.

Bounds are passed on as bounds.

The term Kd denotes a measure of binding affinity in units of concentration.

Turning to “His6 Rab10-Q63L (1–181) phosphorylated in vitro by Mst3 (from UniProt P61026 1-181) (domain or fragment)”, the Kd in assay [1] worked out at 0.475 µM.

“MyoVa GTD-mCherry (1,421–1,880) (domain or fragment)” had an FLIP in HeLa cells expressing R1441G LRRK2: half-time of fluorescence loss of GTD-mCherry over the region of interest against adjacent cytoplasm; dependent on kinase activity in assay [2] of 107 s.

Molecule “full-length MyoVa mCherry (natural protein)” displayed an FLIP in HeLa cells expressing R1441G LRRK2: half-time of fluorescence loss of MyoVa mCherry over the pericentriolar region of interest (adjacent cytoplasm t1/2 = 83 s; retention ameliorated by MLi-2) in assay [2] of 4.53 min.

B1: His6 Rab8A Q63L phosphorylated in vitro by Mst3 (natural protein)
chain: MAKTYDYLFKLLLIGDSGVGKTCVLFRFSEDAFNSTFISTIGIDFKIRTIELDGKRIKLQIWDTAGLERFRTITTAYYRGAMGIMLVYDITNEKSFDNIRNWIRNIEEHASADVEKMILGNKCDVNDKRQVSKERGEKLALDYGIKFMETSAKANINVENAFFTLARDIKAKMDKKLEGNSPQGSNQGVKITPDQQKRSSFFRCVLL
modifications: phosphorylated by Mst3 (residue not given)
As for B1, the Kd in assay [3] worked out at 6.6 µM. The “fold weaker binding than pRab10” value in assay [4] is roughly 14 fold.

B2: His6 Rab8A Q63L, non-phosphorylated (natural protein)
chain: MAKTYDYLFKLLLIGDSGVGKTCVLFRFSEDAFNSTFISTIGIDFKIRTIELDGKRIKLQIWDTAGLERFRTITTAYYRGAMGIMLVYDITNEKSFDNIRNWIRNIEEHASADVEKMILGNKCDVNDKRQVSKERGEKLALDYGIKFMETSAKANINVENAFFTLARDIKAKMDKKLEGNSPQGSNQGVKITPDQQKRSSFFRCVLL
For the molecule B2, the dissociation constant Kd in assay [5] was greater than 29 µM.

B3: His6 Rab10-Q63L (1–181), non-phosphorylated (domain or fragment)
chain: MAKKTYDLLFKLLLIGDSGVGKTCVLFRFSDDAFNTTFISTIGIDFKIKTVELQGKKIKLQIWDTAGLERFHTITTSYYRGAMGIMLVYDITNGKSFENISKWLRNIDEHANEDVERMLLGNKCDMDDKRVVPKGKGEQIAREHGIRFFETSAKANINIEKAFLTLAEDILRKTPVKEPNS
B3: in assay [6], the Kd was greater than 18 µM.

The record behind these values is PMC7994366, “LRRK2-phosphorylated Rab10 sequesters Myosin Va with RILPL2 during ciliogenesis blockade” (Life Science Alliance, 2021).
